Measurements reported in patent publication US20240190937A1, “HUMAN INSULIN C-ALPHA-PEPTIDES AND METHODS OF USE” (The United States of America, as represented by the …, priority 2021, published 2024).

Key:
β-Amyloid (1-42) = β-Amyloid (1-42) (Homo sapiens, UniProt P05067); experiment: β-Amyloid (1-42) fibrillation assay (ThT binding to amyloid); type: biochemical; conditions: 50 μM β-Amyloid plus 50 μM peptide; time range of 60-240 min; three replicates
Protocol: FIGS. 21A-21C show inhibition of β-Amyloid (1-42) fibrillation by C- (C-pep) and Cα-peptides (Cα-pep). […] FIG. 21B is a box-whisker plot on C- and Cα-pep inhibition of β-Amyloid fibrillation in time range of 60-240 min. […] Fluorescence intensity (F.I.) represents ThT binding to amyloid. AUC represents area under curve calculated by Trapezoid rule. Aβ(1-42) represents 50 μM β-Amyloid plus buffer, C-pep represents 50 μM β-Amyloid plus 50 μM C-pep, and Cα-pep represents 50 μM β-Amyloid plus 50 μM Cα-pep.
Thioflavin T (ThT) was from MilliporeSigma (catalog number T3516; Rockville, MD). IAPP (37 AA) (catalog number LT110006) (amidated C-terminal and disulfide bridge between Cys2 and Cys7) was from LifeTein (Hillsborough, NJ), and C-peptide (catalog number AS-61127) was from AnaSpec (Fremont, CA). Cα-peptide was custom made (Genemed Synthesis, Inc., San Antonio, TX). Black 96-well microplates (chimney well) were from Greiner Bio-One (Frickenhausen, Germany). […] Amyloid kinetics were measured by increasing ThT fluorescent amyloid binding intensity (1ex 440 nm; 1em 485 nm; height 3 mm; flashes 12) for 36 cycles, 5 min per cycle, at 37° C. with 15 s of shaking (100 rpm) between the reads in the EnSpire Multimode Plate Reader (PerkinElmer, Inc., Waltham, MA).

IAPP = target: T1, IAPP (Homo sapiens, UniProt P10997); experiment: IAPP aggregation assay (Thioflavin T fluorescence); type: biochemical; conditions: 50 mmol/L IAPP plus 50 mmol/L peptide; 37° C.; range of 90-130 min; three replicates
T1 construct: IAPP (37 AA) (catalog number LT110006) (amidated C-terminal and disulfide bridge between Cys2 and Cys7) was from LifeTein; purchased LifeTein (Hillsborough, NJ) LT110006
T1 sequence (P10997 34-70 limits assumed): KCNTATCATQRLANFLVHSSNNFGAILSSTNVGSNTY
From the text: Thioflavin T (ThT) was from MilliporeSigma (catalog number T3516; Rockville, MD). IAPP (37 AA) (catalog number LT110006) (amidated C-terminal and disulfide bridge between Cys2 and Cys7) was from LifeTein (Hillsborough, NJ), and C-peptide (catalog number AS-61127) was from AnaSpec (Fremont, CA). Cα-peptide was custom made (Genemed Synthesis, Inc., San Antonio, TX). Black 96-well microplates (chimney well) were from Greiner Bio-One (Frickenhausen, Germany). Soluble and monomeric IAPP was made according to published protocols (Stine et al., Methods Mol. Biol. 670:13-32, 2011; Tu et al., Biochemistry 54:666-676, 2015), and the AnaSpec Manual of SensoLyte Thioflavin T Aggregation Kit (catalog number AS-72214) was used for the IAPP aggregation assay, with final concentration of 1% DMSO and […] ThT in component A buffer. The buffer was used as blank and IAPP without inhibitors, and the final concentration of IAPP and C- and Cα-peptides was […] each in the inhibition assays. Amyloid kinetics were measured by increasing ThT fluorescent amyloid binding intensity (1ex 440 nm; 1em 485 nm; height 3 mm; flashes 12) for 36 cycles, 5 min per cycle, at 37° C. with 15 s of shaking (100 rpm) between the reads in the EnSpire Multimode Plate Reader (PerkinElmer, Inc., Waltham, MA).

Chain of β-Amyloid (1-42) (P05067 672-713 limits assumed): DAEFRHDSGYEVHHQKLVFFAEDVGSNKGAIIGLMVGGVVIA

Substance | inhibition of β-Amyloid fibrillation (ThT fluorescence intensity, AUC) (β-Amyloid (1-42)) | inhibition of IAPP fibrillation (ThT fluorescence intensity, AUC) (IAPP)
C-peptide: classical 31-AA human insulin C-peptide, AnaSpec catalog number AS-61127 (EAEDLQVGQVELGGGPGAGSLQPLALEGSLQ) | not | inhibition of IAPP fibrillation
EAEDLQGSLQPLALEGSLQ (C-alpha peptide; listed as Homo sapiens) [Cα-peptide, human 19-AA insulin C-peptide variant encoded by INS3B isoform; custom made by Genemed Synthesis] | inhibits | inhibited IAPP fibrillation more efficiently than C-peptide
